According to the supplement of paper PMC7125110:
± gives the standard error. For part of these data: Fewer inactive variants are shown than the library holds.

B1: glmS ribozyme (parent)
chain: AUAAAAGCGCCAGAACUACAGAAAUGUAGUUGACGAGGAGGAGGUUUAUCGAAUUUUCGGCGGAUGCCUCCAAA

Experiments:
Conditions in all cases: with glucosamine-6-phosphate
glucosamine-6-phosphate [1] = variants of: B1; experiment: kcat; higher = faster cleavage; RNA array
Procedure, shortened: (§1)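 Tracking of barcoded ribozyme variants used a hybridised Cy3 probe at 37 °C, after in situ transcription by E. coli RNA polymerase on sequenced MiSeq chips. The flowed solution held 40 μM to 10 mM glucosamine-6-phosphate in HEPES/KCl/Mg(OAc)2 buffer, and imaging ran over ~14 h. kobs was taken from exponential decay fits of normalised per-tile medians, and kcat and KM from weighted Michaelis–Menten fits.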

glucosamine-6-phosphate [2] = variants of: B1; experiment: self-cleavage kobs at 40 uM GlcN6P; higher = faster cleavage; RNA array
Procedure, shortened: as §1

glucosamine-6-phosphate [3] = variants of: B1; experiment: self-cleavage kobs at 160 uM GlcN6P; higher = faster cleavage; RNA array
Procedure, shortened: as §1

glucosamine-6-phosphate [4] = variants of: B1; experiment: self-cleavage kobs at 2500 uM GlcN6P; higher = faster cleavage; RNA array
Procedure, shortened: as §1

glucosamine-6-phosphate [5] = variants of: B1; experiment: self-cleavage kobs at 10000 uM GlcN6P; higher = faster cleavage; RNA array
Procedure, shortened: as §1

glucosamine-6-phosphate [6] = variants of: B1; experiment: self-cleavage kobs at 640 uM GlcN6P; higher = faster cleavage; RNA array
Procedure, shortened: as §1

glucosamine-6-phosphate [7] = variants of: B1; experiment: KM; higher = weaker cofactor use; RNA array
Procedure, shortened: as §1

Row | Variant | kcat (glucosamine-6-phosphate [1]) [s⁻¹] | self-cleavage kobs at 40 uM GlcN6P (glucosamine-6-phosphate [2]) [s⁻¹] | self-cleavage kobs at 160 uM GlcN6P (glucosamine-6-phosphate [3]) [s⁻¹] | self-cleavage kobs at 2500 uM GlcN6P (glucosamine-6-phosphate [4]) [s⁻¹] | self-cleavage kobs at 10000 uM GlcN6P (glucosamine-6-phosphate [5]) [s⁻¹] | self-cleavage kobs at 640 uM GlcN6P (glucosamine-6-phosphate [6]) [s⁻¹] | KM (glucosamine-6-phosphate [7]) [µM]
1 | G63U | < 1e-05 | < 1e-05 | < 1e-05 | < 1e-05 | < 1e-05 | – | –
2 | U49C A53U | < 1e-05 | – | – | – | – | – | –
3 | U54C A64U | 7.19e-05 ± 1e-05 | – | – | 5.96e-05 ± 1.3e-05 | 6.16e-05 ± 1.3e-05 | – | –
4 | A14G U45C | 0.00289 ± 0.0011 | 0.000196 ± 4.6e-05 | 0.000403 ± 9.2e-05 | 0.00215 ± 0.00057 | – | 0.00149 ± 0.00031 | –
5 | C58A A64C | < 1e-05 | < 1e-05 | – | – | – | – | –
6 | C68U | 0.00795 ± 0.003 | 0.000113 ± 1.6e-06 | 0.000316 ± 1.2e-05 | 0.00371 ± 0.00012 | – | 0.0015 ± 6.4e-05 | 2930 ± 1200
7 | G41U A53C | 0.000167 ± 4e-05 | < 1e-05 | – | 7.23e-05 ± 9.5e-06 | 0.000139 ± 1.2e-05 | 5.64e-05 ± 1.2e-05 | –
8 | C11A C67G | 5.42e-05 ± 1.1e-05 | – | 3.16e-05 ± 1.1e-05 | 3.8e-05 ± 1e-05 | 5.65e-05 ± 8.7e-06 | 8.75e-05 ± 1.5e-05 | –
9 | G40U U46C | 0.00175 ± 0.00024 | 4.23e-05 ± 1.1e-05 | 9.14e-05 ± 1.9e-05 | 0.000971 ± 0.00014 | 0.00137 ± 0.00016 | 0.000365 ± 5e-05 | 2420 ± 530
10 | G40C C70G | 0.000147 ± 2.2e-05 | – | – | 0.000163 ± 2.9e-05 | 0.000128 ± 1.3e-05 | 5.48e-05 ± 8.7e-06 | 973 ± 420
11 | A14G G32C C70U | 0.000668 ± 0.00026 | – | – | 9.2e-05 ± 3.3e-05 | 0.000239 ± 4.4e-05 | – | –
12 | G41U U47G | 0.00121 ± 0.0005 | 4.35e-05 ± 1.2e-05 | 3.94e-05 ± 1.2e-05 | 0.000364 ± 8.6e-05 | 0.00093 ± 0.00013 | 0.000221 ± 4.5e-05 | –
13 | U46G U65A | 0.00378 ± 0.00067 | 8.18e-05 ± 1.7e-05 | 0.000198 ± 4.8e-05 | 0.00212 ± 0.00033 | 0.00296 ± 0.00047 | 0.000703 ± 0.00015 | 2420 ± 650
14 | A39U A53C | 0.00528 ± 0.0015 | 9.69e-05 ± 1.1e-05 | 0.000314 ± 4.2e-05 | 0.00228 ± 0.00027 | 0.00454 ± 0.00047 | 0.000759 ± 8.9e-05 | 2890 ± 1100
15 | G51A C67G | 2e-05 ± 6.5e-06 | – | – | – | – | – | –
16 | U46C U47A | 0.00433 ± 0.002 | 9.34e-05 ± 1.5e-05 | – | 0.00311 ± 0.0008 | 0.00365 ± 0.001 | 0.000719 ± 0.00017 | –

Row | Variant | kcat (glucosamine-6-phosphate [1]) [s⁻¹] | self-cleavage kobs at 40 uM GlcN6P (glucosamine-6-phosphate [2]) [s⁻¹] | self-cleavage kobs at 160 uM GlcN6P (glucosamine-6-phosphate [3]) [s⁻¹] | self-cleavage kobs at 2500 uM GlcN6P (glucosamine-6-phosphate [4]) [s⁻¹] | self-cleavage kobs at 10000 uM GlcN6P (glucosamine-6-phosphate [5]) [s⁻¹] | self-cleavage kobs at 640 uM GlcN6P (glucosamine-6-phosphate [6]) [s⁻¹] | KM (glucosamine-6-phosphate [7]) [µM]
17 | C11G U56G | 1.32e-05 ± 5.5e-06 | < 1e-05 | – | – | – | < 1e-05 | –
18 | A33C C50A | < 1e-05 | – | – | – | – | – | –
19 | U31A U56C | 0.00331 ± 0.0008 | 6.48e-05 ± 1.3e-05 | 0.000186 ± 4.2e-05 | 0.00115 ± 0.00025 | 0.00299 ± 0.00037 | 0.00066 ± 0.00012 | 2630 ± 990
20 | A12C C70G | 0.000232 ± 6.8e-05 | – | 7.74e-05 ± 1.7e-05 | 0.000154 ± 1.8e-05 | 0.000352 ± 4.1e-05 | 0.000119 ± 1.1e-05 | –
21 | A14U A53U | 0.00789 ± 0.00051 | 0.000127 ± 1.2e-05 | 0.000453 ± 9.2e-05 | 0.00355 ± 0.00044 | 0.00654 ± 0.00056 | 0.00157 ± 0.00019 | 2540 ± 240
22 | A12G U47G | 0.000821 ± 0.00017 | – | 1.69e-05 ± 7.8e-06 | 0.000266 ± 2.7e-05 | 0.000573 ± 4.8e-05 | 0.000127 ± 1.6e-05 | 4640 ± 1600
23 | C70U C71G | 0.000124 ± 1e-05 | – | 7e-05 ± 1.3e-05 | 0.000118 ± 9.3e-06 | 0.00012 ± 1.1e-05 | 8.39e-05 ± 8.3e-06 | 242 ± 98
24 | A53U C68A | 5.43e-05 ± 1.6e-05 | – | 3.62e-05 ± 1e-05 | 6.54e-05 ± 9.8e-06 | – | 6.67e-05 ± 8.3e-06 | –
25 | A12G C68G | 3.14e-05 ± 6.3e-06 | – | – | 4.35e-05 ± 1.8e-05 | – | – | –
26 | G43C C67G | 0.000698 ± 0.00015 | – | – | 0.000454 ± 0.0001 | 0.000541 ± 5.7e-05 | 0.000186 ± 3.6e-05 | 2490 ± 1200
27 | G32A G66U | 0.000161 ± 4.6e-05 | – | – | 5.52e-05 ± 1.1e-05 | 0.000118 ± 1.6e-05 | 4.96e-05 ± 1.7e-05 | –
28 | G66U C67A | 0.00338 ± 0.00094 | 5.28e-05 ± 1.5e-05 | 0.000188 ± 5.8e-05 | 0.00197 ± 0.00041 | 0.00241 ± 0.00063 | 0.0005 ± 9.9e-05 | 3020 ± 1100
29 | U31C U69G | 3.99e-05 ± 1.4e-05 | – | – | 5.64e-05 ± 1.6e-05 | – | – | –
30 | A14C G60A | < 1e-05 | < 1e-05 | – | – | – | < 1e-05 | –
31 | A53G A64C | 0.000207 ± 2.2e-05 | – | – | 0.000109 ± 1.4e-05 | 0.000181 ± 1.9e-05 | 5.95e-05 ± 9.6e-06 | 1870 ± 470
32 | A15C A64G | 0.00792 ± 0.0013 | 0.000125 ± 1.6e-05 | 0.00037 ± 6.2e-05 | 0.00387 ± 0.00068 | 0.00614 ± 0.00072 | 0.00113 ± 0.00024 | 2980 ± 660
